Molecular target: STAT6 (pcDNA4-STAT6-mychis expression construct) (UniProt P42226)
UniProt P42226, sequence (P42226 whole entry): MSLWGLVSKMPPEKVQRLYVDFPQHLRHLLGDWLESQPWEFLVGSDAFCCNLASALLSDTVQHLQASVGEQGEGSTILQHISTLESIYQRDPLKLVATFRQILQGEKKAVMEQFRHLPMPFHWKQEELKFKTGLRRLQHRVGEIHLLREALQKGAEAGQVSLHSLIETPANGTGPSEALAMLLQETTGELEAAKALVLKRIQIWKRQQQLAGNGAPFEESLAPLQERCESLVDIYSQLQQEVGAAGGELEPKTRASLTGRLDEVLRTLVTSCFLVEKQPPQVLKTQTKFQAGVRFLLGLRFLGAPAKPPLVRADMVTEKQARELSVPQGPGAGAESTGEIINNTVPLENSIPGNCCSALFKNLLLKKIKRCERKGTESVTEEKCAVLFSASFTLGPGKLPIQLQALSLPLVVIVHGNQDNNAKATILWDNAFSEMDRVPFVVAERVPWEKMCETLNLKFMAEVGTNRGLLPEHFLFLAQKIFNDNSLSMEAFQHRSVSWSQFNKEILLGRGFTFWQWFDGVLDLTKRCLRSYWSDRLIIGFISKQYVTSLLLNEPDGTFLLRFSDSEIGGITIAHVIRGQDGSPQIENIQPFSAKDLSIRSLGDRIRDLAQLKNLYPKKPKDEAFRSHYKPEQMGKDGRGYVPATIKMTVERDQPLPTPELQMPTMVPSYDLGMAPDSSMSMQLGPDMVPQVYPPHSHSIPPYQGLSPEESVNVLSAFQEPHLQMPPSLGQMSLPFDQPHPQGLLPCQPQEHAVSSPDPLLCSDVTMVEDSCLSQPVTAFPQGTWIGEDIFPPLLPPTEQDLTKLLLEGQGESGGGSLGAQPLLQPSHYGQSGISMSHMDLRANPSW

## HA-Tip-YYFY (Y127F) (natural protein)
  STAT6-responsive luciferase reporter in 293T cells transfected with Lck and Tip variants, against wildtype Tip (fold reduction): 3

Source: article PMC3320567
